Assay results from article PMC10817188.

Assays:
[1] = molecular target: KPC-2 carbapenemase (Klebsiella pneumoniae carbapenemase 2) (Klebsiella pneumoniae (endogenous in ATCC BAA-1705)) (UniProt Q9F663)
[2] = molecular target: β-lactamase obtained from Bacillus cereus 569H (Bacillus cereus 569H)
[3] = molecular target: β-lactamase obtained from Bacillus cereus 569H (Bacillus cereus 569H); remark: listed apart in the source

UniProt Q9F663, sequence (Q9F663 25-293): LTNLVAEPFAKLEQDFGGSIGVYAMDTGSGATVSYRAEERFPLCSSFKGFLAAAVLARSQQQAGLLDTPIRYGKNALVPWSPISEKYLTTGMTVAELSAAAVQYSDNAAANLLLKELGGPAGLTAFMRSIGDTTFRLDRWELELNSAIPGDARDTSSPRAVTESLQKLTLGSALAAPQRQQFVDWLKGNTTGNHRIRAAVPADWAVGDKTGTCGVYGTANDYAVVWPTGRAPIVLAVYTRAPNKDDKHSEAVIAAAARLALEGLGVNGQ

B1: truncated BLIP-II (tBLIP-II), β-lactamase inhibitory protein-II without its signal sequence (natural protein)
chain: ATSVVAWGGNNDWGEATVPAEAQSGVDAIAGGYFHGLALKGGKVLGWGANLNGQLTMPAATQSGVDAIAAGNYHSLALKDGEVIAWGGNEDGQTTVPAEARSGVDAIAAGAWASYALKDGKVIAWGDDSDGQTTVPAEAQSGVTALDGGVYTALAVKNGGVIAWGDNYFGQTTVPAEAQSGVDDVAGGIFHSLALKDGKVIAWGDNRYKQTTVPTEALSGVSAIASGEWYSLALKNGKVIAWGSSRTAPSSVQSGVSSIEAGPNAAYALKG
B1 showed an MIC of meropenem against K. pneumoniae ATCC BAA-1705 (bla KPC-2 positive) with 10 or 20 μM protein (16 μg/mL without protein; 8 at both concentrations) [1] of 8 µg/mL, a reduction in β-lactamase activity (nitrocefin hydrolysis) at 0.0625 μM inhibitor; constant at higher concentrations up to 2 μM [2] of 70% and an IC50 of inhibition of nitrocefin hydrolysis by the β-lactamase (inhibitor 0.0078-2 μM, pre-incubated 15 min at 30°C, absorbance at 490 nM) [3] of 51.1 nM.
